Assay results as given in the nanobody polyreactivity screen of Harvey et al. (2022).

Assay: yeast display, Sf9 membrane polyspecificity reagent, FACS + sequencing; frameworks hold sequencing errors
Method in brief: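 After 36–48 hours of galactose induction, yeast (Saccharomyces cerevisiae BJ5465) displaying a synthetic nanobody library were stained at 4 °C for 1 hour with 10% biotinylated, detergent-solubilized Sf9 membrane reagent. Streptavidin microbeads enriched the stained cells before FACS sorting into low and high (top ~1%) gates on anti-HA and streptavidin fluorescence. Each clone's polyreactivity label reflects its gate of origin.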

Row | Sequence | polyreactivity (PSR sort gate)
1 | QVQLVESGGGLVQAGGSLRLSCAASGSIFDFYAMGWYRQAPGKERELVADISSSDGSTSYADSVKGRFTISRDNAKNTVYLQLNSLKPEDTAVYYCAASQLFGWFPYDYWGQGTQVTVSS | high polyreactivity
2 | QVQLVESGGGLVQAGGSLRLSCAASGRIFVYNAMGWYRQAPGKERELVAAISGGGSTYYADSVKGRFTISRDNAKNTVYLQMNSLKPEDTAVYYCNTVFSGYARGWFQPAYNYWGQGTQVTVSS | high polyreactivity
3 | QVQLVESGGGLVQAGGSLRLSCAASGSIFYYYAMGWYRQAPGKERELVAAISRSGGSTYYADSVKGRFTISRDNAKNTVYVQMNSLKRDDTAVYYCAAQSRYWTYDYWGQGTQVTVSS | high polyreactivity
4 | QVQLVESGGGLVQAGGSLRLSCAASGIIFYGNAMGWYRQAPGKERELVAAISWSGSSTYYADSVKGRFTISRDNAKNTVYLQMNSLKPEDPAVYYCNKATSSVRYLKYYYWGQGTQVTVSS | high polyreactivity
5 | QVQLVESGGGLVQAGGSLGLSCAASGRSFYFYAMGWYRQAPGKERELVAALSRGGGTNYADSVKGRFTLSRDNATNTVYLQMNSLKPEDTAVYDCAARPGPYWTVTFRSPKYYYWGQGTQVTVSS | high polyreactivity
6 | QVHLQESGGGLVQAGGSLRLSCAASGTIFASQHMGWYRQAPGKERELVASIAKGGTTYYADSVKGRFTISRGNAKNTEYLQMNRLKPEDTAVYYCAARGWGYRRTYVYAWYDYWGQGTQVTVSS | high polyreactivity
7 | QVQLVESGGCLVQAGGSLRLSCAASGSTFRHYAMGWYRQQPGKERELVASISKSAGRTYYADSVKGRFTISRDIAKNTVNLQMNSLKPEDTAVYYCAAYRIHVYPAGLAWQYYYELDYWGQGTQLTVSS | high polyreactivity
8 | QVQRVESGGGLVQAGGSLRLSCAASGRIFQVYAMGWSRPAPGKERELVAAITWSGGSSYADSVKGRFTISRDNAKNTVFLQMNSLKPEDTAVYYCAAPFYYYGVRFDYRGQGTQVTVSS | high polyreactivity
9 | QVQLVESGGGLVQAGGSLRLSCAASGFIFSRNAMGWYRQAPGKERELVAAISSTGGITYYADSVKGRFTISRDNAKITVYLQMNSLKPEDTAVYYCAAGFYGYARHSWYKYWGQGTQVTVSS | high polyreactivity
10 | QVQLVESGGGLVQAGGSLRLSCAASGFILTDNAKGWNRQAPGKERELVAAINSGGSTYYADSVKGRFTISRDNAKNTVYLQMNSLKPEDTEVYYCAADYSTWLRAYDYWGQGTQVTVSS | low polyreactivity
11 | QVQLVESGGGLVQAGGCLRLSCAASGFIFRRNALGWYSEAPGKERELVAAMGSRGTATDYADSVKGRFTISRDNAKKTVYLQMNRLNPEDTAVDYCAKSVVAWGPNFRPNHTRGYYWGQGTQATVSS | low polyreactivity
12 | QVQLVESGGGLVQAGGSLRLSCAASGRIFAYYAMGWYRQAPGKERELVAAISSSGVSTSYADSVKGRFTISRDNAKNTVYLQMNSLKPEDTAVYYCAASPGGRPYFNHDSWGQGTQVTVSS | low polyreactivity
13 | QVQLVESGGGLVQAGGSLRLSCAASGSIFVWYAMGWYRQAPGRKELVAAISWSGGTTYYADSVKGRFTISRDNAKNTVYLQMNSLKPEDTAVYYCAARGAVQASFYYWGQGTQVTVSS | high polyreactivity
14 | QVQLVESGGGLVQAGGSLRLSCAASGSIFLDYAMGWYRQAPGKERELVDGITISGGSTYYADSVKGRFTISRDNAKNTVYLQMNSLKPEYTAVYYCAKVAPRSSSSQEYYYWGQGTQVTVSS | low polyreactivity
15 | QVQLVESGGGLVQAGGSLRLSCAASGNTFREYTMGWYRQAPGKERELVAGISGSGGRTYYADSVKGRFTISRDNAKNTVYLQMNSLKPEDTAVYYCNARWYYGIGYNYWGQGTQVSVSS | high polyreactivity
16 | QVQLQESSGGLVQAGGSLRMSCAASGTIFHFHIMGWYRQAPGKEREFVAAISYGTSTYYADSVKGRFTISRDNAKNTVYLQMNSQKPEDTGVYYCAVYDYLEVYCWYWGQGTQVTVSS | low polyreactivity
17 | QVQLEESVGGLVQAGGSLRLTCAASGSIFKTNAIGWYRQAPGKERELVAAIRASGGSTYYADSVKGRFTISRDNAKNSVYLQMNSLKPEDTAVYYCAARYWFKYYWGQGTQVTVSS | low polyreactivity
18 | QVQLVDSGGGLVQAGGSLRLSCAASGSTFRYYAMGWYRQAPGKEREFVAAITRSGGSTYYADSVKGRFTISRDNAKNTVYLQMNSLKPEETAVYYCNARPSASSRKKLERYYWGQGTQVTVSS | low polyreactivity
19 | QVQLVESGGGLVQAGGSLRLSCAASGRIFRYSAMGWYRQAPGKERELVAAISSDGSTDYADSVKGRFTISRDNAKNTVYLQMNSLKPEDTAVYYCAASVVSYGHDYWGQGTQVTVSS | low polyreactivity
20 | QVQLQESGGGLVQAGGSLRLSCAASGPISRRSTMGWYRQAPGKERELVTAITRGTNTNYADSVKGRFTISRDNAKNTESLQMNSLKPEDTAVYYGAAYGVLKPSRGDAVFHRYWGQGTQVTVSS | low polyreactivity
21 | QVQLVESGGGLVQAGGSLRLSCASSGNTFVDYAMGWFRQAPGKETELVAAISDGGSTNYADSVKGRFTISRDNAKNTVDLQMNSLKPEDTEVYYCAKDELYIPGVWPYYEYDYWGQGTQVTVSS | low polyreactivity
22 | QVQLVESGGGLVQEGGSLRLICAASGSTFGVNAMGWYRQAPGKERELVAAISSSGYSTYADSVKGRFTISRDNAKNTVYLQMNSLKPEDTAVYYCNKTTLLTVEYDYWGQGTQVTVSS | low polyreactivity

Row | Sequence | polyreactivity (PSR sort gate)
23 | QVQLVESGGGLVQAGGSLRLSCAASGSIFLKYAMGWYRQAPGKERELVAAISSRGGSTYYADSVKGRFTISRDNAKNTVYLQMNSLKPEDTAVYYCAKVRQTYFGWYSTTRDYWGQGTQVTVSS | high polyreactivity
24 | QVHLEHSAGGLVQAGGILRLSSPASGSIVVTNAMGWYRQAPGKERELVAAISNSGSSTYYADSVKGRFTISRDNSKNTVYLQMNSLKPEDTAVYYCAADEPTWDWSYPYGYWGQGTQVTVSS | high polyreactivity
25 | QVQLVESGGGLVQAGGSLRLSCAASGSTFDVYAMGWYRQAPGKERELVAAISRSGGSTYYADSVKGRFTISRDNAKNTVYLQMNSLKPEDTAVYYCNARLARWGSYEYNYWGQGTQVTVSS | low polyreactivity
26 | QVQLVESGGGLVQAGGSLLLSCAASGSTFRYYAMGWYRPAPGKERELVAATTSGGSTYYADSVKGRFTISRDNAKNTVYLQMNSLKPEDTAVYYCAKSISRYFFYRPSAAAYGYDYWGQGTQVTVSS | high polyreactivity
27 | QVQLVESGGGLVQAGGSLRLSCAASGSTFVDNAMGWYRQAPGKERELVAAISSSGGTTYYADSVKGRFTISRDNAKNTVYLQMNSLKPEDTAVYYCAARRRSGTYWRSANDYWGQGTQVTVSS | high polyreactivity
28 | QVQLVESGGGLVQAGGSLRLSCAASGLTFFYYAMGWYRQAPGKERELVASITWRSGSTYYADSVKGRFTISRDNAKNTVYLQMNSLKPEDTAVYYCAAYPYTYLQLMDYWGQGTQVTVSS | high polyreactivity
29 | QVQLVESGGGLVQAGGSLRLSCAASGSIFYAYVMGWYRQAPGKERELVAAIDIGGGTYADSVKGRFTISRDNAKNTVYLQMNMLKPEDTAVYYCAKAGYFSRGVYVYYLDEYDYWGQGSQVTVSS | high polyreactivity
30 | QVQLVESGGGLVQAGGSLRLSCAASGSIFRNNAMGWYRQAPGKERELVASISSSGDSTYADSVKGRFTISRDNAKNTVYLQMNSLKPEDTAVYYCARDYLSPYAVDYWGQGTQVTVSS | low polyreactivity
31 | QVQLVESVGGIVQAGGSLRLSCAASGRTFYVYAMGWYRQARGKERELVASIRWRGSTYYADSVKGRFTISRDNAKNTVYLKMNSLKPEDTAVYYCAARYPYELGFDYWGQGTQVTVSS | low polyreactivity
32 | QVQLVESGGGLVQAGGSLRLSCAASGSTFVVNTMGRYRQAPGKERELVAAISTGSSTYADSVKGRFTISRDNAKNTVYLQMNSLKPEDTAVYYCNTAFPGKYDYWGQGTQVTVSS | low polyreactivity
33 | QVQLVESGGGLVQAGGSLRLSCAASGSTFSNNSIGWYRQAPWKETELVAAISWYGDSTYADSVKGRFTISRDNAKNTVYLQMNSLKAEATAVYYCAKDTIITPGRRKSPRDRHGYWGQGTQVTVSS | low polyreactivity
34 | QVQLEESGGGLVQAGGSLRLSCAASGSIFDSYAMGWYRAAPGKERELVATINTSGGSTYYADSVKGRFTIHDNAKNTVYLQMNSLKPEDTAVYYCNAGRWVYWQNNFGDYGYWGQGTQVTVSS | low polyreactivity
35 | QVQLVESGGGLVQAGGSLRLSCAASGIIFQSYTMGWYRQPPGKERELVAAIDSGGSTYYADSVKGRFTISRDNAKNTVYLQMNSLKPEDTAVYYCATDYPLSWSPLYDYDYWGQGTQVTVSS | low polyreactivity
36 | QVQLVESGGGLVQAGGSLRLSCAASGITLQYYAMGWYRQAPGKERQLVAGITSGGGTYYADSVKGRFTISRDNAKNTVYLQMNSLKPEDTAVYYCAARPWRSRYYGGLGRRFDYWGQGTQETVSS | high polyreactivity
37 | QVQLVESVGGLVQAGGSLRLSCAASGSTFAGYAMGWYRQAPGKERELVAAISGGRTYYADSVKGRFTISRDNAKNTVYLQMNSLQPEDTAVYYCAKRYFYYTAYNAYGYWGQGTQVTVSS | high polyreactivity
38 | QVQLVESGGGLVQAGGSLRLSCAASGIIFDCNSMGWYRQAPGKERELVAANTSSTDSTYYADSVKGRFTISRDNAKNTVYLQLNSLKPEDTAVYYCAAAYPSKTFDYWGQGTQVTESS | low polyreactivity
39 | QVQLVESGGGLVQAGGSIRLSCAASGTIFRSYAMGWYRQAPGKERELVAAITSSSGSTYYADSVKGRFTISRDNAKNTVYLQMNSLKPEDTAGYYFNAPYWKSRFRAYYHWGQGTQVTVSS | high polyreactivity
40 | QVQLVESGGGLVQAGGSLRLSCAASGIIFNSNAMGWYRQAPGKERELVAAISVSGGSTYYADSVKGRFTISRDNAKNTVYLQMNILKPEDTAVYYCAAVFYYWSLRSYYWGQGTQVTVSS | high polyreactivity
41 | QVQLVESGGGLVQAGGSLRLSCAASGLIFYYYAMGWYRQAPGKERELVAAITGSGGSTYYADSVKGRFTISRDNAKNTVYLQMNSLKPEDTAVYYCAADGIYTYEYWGQGTQVTVSS | low polyreactivity
42 | QVQLVESGGGLVQGGGSLRLRCAASGSILLYYTMGWYRPAPGKERELVAAISWSGVSTYYADSVKGRFTISRDNPMNTVYLQMISLKPVDNEVYYCGTRSVQGSYFAGYCYWGQGPQVTVSS | low polyreactivity
43 | QVQLVESAGGLVQAGGSLRLSCAASGSTFWIYTMGWYRQAPGKERELVAAITWSGGRTYYADSVKGRFTISRDNAKNTVYLQMNSLKPEDTAVYYCNADVYSYRPSTIQRYVLFDYWGQGTQVTVSS | low polyreactivity
